Values quoted from earlier work in article PMC7589189.
Like-named read-outs stand apart in the source and are kept apart here.

Legend:
[1] = biological target: ActRIIA (Homo sapiens) (UniProt P27037)
[2] = biological target: ALK1-Fc (Homo sapiens) (UniProt P37023); assay: SPR
[3] = biological target: TβRII (Homo sapiens) (UniProt P37173)
[4] = biological target: TβRII (Homo sapiens) (UniProt P37173); remark: listed apart in the source
[5] = biological target: TβRII (Homo sapiens) (UniProt P37173); remark: listed apart in the source

TβRII (Homo sapiens), sequence (P37173 23-166): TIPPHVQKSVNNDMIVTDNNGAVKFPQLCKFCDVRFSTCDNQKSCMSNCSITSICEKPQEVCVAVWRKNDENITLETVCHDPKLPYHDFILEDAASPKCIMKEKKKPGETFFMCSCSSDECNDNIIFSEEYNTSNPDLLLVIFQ
ALK1-Fc (Homo sapiens), sequence (P37023 22-118): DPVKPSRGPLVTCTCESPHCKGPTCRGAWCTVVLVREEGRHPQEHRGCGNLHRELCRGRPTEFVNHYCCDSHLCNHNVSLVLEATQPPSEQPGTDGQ
BMP-9, sequence (Q9UK05 320-429): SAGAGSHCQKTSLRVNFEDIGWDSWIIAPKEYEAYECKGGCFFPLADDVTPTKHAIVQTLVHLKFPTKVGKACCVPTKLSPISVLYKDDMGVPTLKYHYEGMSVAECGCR
pro-BMP-9, sequence (Q9UK05 320-429): as above
TGF-β3, sequence (P10600 301-412): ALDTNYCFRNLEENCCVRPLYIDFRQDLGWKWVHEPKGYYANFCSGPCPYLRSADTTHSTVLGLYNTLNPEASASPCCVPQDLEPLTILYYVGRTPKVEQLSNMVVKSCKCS
TGF-β2, sequence (P61812 303-414): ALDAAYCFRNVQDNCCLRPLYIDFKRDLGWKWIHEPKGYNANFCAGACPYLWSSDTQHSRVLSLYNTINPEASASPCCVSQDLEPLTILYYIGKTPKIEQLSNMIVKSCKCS
BMP-7, sequence (P18075 293-431): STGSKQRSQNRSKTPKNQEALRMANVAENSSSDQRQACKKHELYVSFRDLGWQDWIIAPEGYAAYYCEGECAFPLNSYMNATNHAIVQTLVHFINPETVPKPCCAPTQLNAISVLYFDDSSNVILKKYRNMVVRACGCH
ActRIIA (Homo sapiens), sequence (P27037 20-135): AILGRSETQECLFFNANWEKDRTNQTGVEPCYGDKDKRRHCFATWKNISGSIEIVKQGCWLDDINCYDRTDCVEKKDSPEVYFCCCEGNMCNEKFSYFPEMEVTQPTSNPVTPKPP
TGF-β1, sequence (P01137 279-390): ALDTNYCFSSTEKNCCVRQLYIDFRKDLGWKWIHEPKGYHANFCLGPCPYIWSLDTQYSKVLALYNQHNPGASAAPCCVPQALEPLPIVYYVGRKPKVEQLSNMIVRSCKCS

## BMP-7 (from UniProt P18075)
[1]
  Kd: 8 nM

## BMP-9 (from UniProt Q9UK05)
[2]
  Kd: 0.048 nM

## TGF-β1 (from UniProt P01137)
[3]
  Kd: 0.2 nM

## TGF-β2 (from UniProt P61812)
[4]
  Kd: > 10 nM

## TGF-β3 (from UniProt P10600)
[5]
  Kd: 0.5 nM

## pro-BMP-9 (from UniProt Q9UK05)
[2]
  Kd: 0.061 nM
